Results published in paper PMC9105409 (2022).
Values belong to the molecule of their own block, whether it stands above or below them.

What was measured:
Recombinant CYP26A1 = biological target: T1, Recombinant CYP26A1 (UniProt O43174)
T1 sequence: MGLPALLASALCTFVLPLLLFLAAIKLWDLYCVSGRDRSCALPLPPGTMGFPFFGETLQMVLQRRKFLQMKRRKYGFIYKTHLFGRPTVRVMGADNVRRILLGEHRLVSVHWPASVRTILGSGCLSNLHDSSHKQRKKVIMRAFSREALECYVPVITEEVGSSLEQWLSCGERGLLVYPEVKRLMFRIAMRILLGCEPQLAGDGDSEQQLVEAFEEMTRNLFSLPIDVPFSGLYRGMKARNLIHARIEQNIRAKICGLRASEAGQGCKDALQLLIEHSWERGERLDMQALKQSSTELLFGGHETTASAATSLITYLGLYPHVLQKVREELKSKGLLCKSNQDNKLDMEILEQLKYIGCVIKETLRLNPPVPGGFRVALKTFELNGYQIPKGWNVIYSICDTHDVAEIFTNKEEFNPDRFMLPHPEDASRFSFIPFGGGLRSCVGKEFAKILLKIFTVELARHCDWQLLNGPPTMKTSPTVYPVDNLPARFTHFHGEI

CYP26A1 = biological target: T2, CYP26A1 (Homo sapiens, UniProt O43174); experiment: enzyme inhibition kinetics
T2 chain: T1 sequence

αKm (affinity of holo-CRABP1, with atRA bound, for CYP26A1), from a global fit of the protein-protein interaction model (Equation 3) to 4-OH-atRA formation velocities (Recombinant CYP26A1): 0.99 nM
Molecule: Cellular retinoic acid binding protein 1 (CRABP1) (from UniProt P29762 1-137) (natural protein)

Ki (CYP26A1): 0.53 nM
αKm (affinity of holo-CRABP2, with atRA bound, for CYP26A1), from a global fit of the protein-protein interaction model (Equation 3) to 4-OH-atRA formation velocities (Recombinant CYP26A1): 0.75 nM
B1: CRABP2 (protein)
chain: MPNFSGNWKIIRSENFEELLKVLGVNVMLRKIAVAAASKPAVEIKQEGDTFYIKTSTTVRTTEINFKVGEEFEEQTVDGRPCKSLVKWESENKMVCEQKLLKGEGPKTSWTRELTNDGELILTMTADDVVCTRVYVRE
